Holding throughout (assay): EMSA
(A gel shift assay detects complexes by their altered migration in electrophoresis.)

One data set has as its target T1, GST-hHSF2 (human) (UniProt Q03933).
T1 sequence: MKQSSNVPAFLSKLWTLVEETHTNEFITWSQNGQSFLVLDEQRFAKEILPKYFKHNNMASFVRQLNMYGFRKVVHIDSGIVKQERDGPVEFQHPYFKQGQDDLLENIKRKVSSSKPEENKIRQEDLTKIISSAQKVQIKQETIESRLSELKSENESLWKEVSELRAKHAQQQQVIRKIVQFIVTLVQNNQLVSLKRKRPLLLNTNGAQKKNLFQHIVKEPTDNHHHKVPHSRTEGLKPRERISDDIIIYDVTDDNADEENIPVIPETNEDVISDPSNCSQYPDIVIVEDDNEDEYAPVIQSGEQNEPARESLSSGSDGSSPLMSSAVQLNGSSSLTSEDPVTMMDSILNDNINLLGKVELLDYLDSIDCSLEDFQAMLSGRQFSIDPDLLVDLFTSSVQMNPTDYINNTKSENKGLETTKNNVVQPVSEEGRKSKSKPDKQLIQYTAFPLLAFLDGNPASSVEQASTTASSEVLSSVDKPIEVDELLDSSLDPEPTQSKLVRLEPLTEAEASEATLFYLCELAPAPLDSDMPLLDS
The settings on record: binding buffer ([…], room temperature 2 h.

For a further data set, the target named is T2, GST-hHSF1 (human) (UniProt Q00613).
T2 sequence: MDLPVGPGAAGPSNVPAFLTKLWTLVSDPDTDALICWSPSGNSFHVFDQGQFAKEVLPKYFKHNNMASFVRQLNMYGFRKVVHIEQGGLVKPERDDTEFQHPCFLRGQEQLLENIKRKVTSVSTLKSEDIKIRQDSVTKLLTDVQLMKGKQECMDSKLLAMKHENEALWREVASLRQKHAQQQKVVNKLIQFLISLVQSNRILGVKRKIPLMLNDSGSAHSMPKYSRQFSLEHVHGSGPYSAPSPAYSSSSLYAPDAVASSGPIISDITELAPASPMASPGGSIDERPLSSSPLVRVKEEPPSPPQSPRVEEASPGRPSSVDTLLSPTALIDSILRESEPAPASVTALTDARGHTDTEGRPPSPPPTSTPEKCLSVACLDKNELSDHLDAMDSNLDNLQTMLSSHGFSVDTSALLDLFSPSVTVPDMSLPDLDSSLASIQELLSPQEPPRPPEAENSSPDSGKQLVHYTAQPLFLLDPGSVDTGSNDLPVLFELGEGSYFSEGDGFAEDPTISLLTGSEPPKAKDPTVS
The settings on record: binding buffer ([…], room temperature 2 h.

In a further data set the target is T3, dHSF (Drosophila melanogaster, UniProt P22813 1-691).
T3 sequence: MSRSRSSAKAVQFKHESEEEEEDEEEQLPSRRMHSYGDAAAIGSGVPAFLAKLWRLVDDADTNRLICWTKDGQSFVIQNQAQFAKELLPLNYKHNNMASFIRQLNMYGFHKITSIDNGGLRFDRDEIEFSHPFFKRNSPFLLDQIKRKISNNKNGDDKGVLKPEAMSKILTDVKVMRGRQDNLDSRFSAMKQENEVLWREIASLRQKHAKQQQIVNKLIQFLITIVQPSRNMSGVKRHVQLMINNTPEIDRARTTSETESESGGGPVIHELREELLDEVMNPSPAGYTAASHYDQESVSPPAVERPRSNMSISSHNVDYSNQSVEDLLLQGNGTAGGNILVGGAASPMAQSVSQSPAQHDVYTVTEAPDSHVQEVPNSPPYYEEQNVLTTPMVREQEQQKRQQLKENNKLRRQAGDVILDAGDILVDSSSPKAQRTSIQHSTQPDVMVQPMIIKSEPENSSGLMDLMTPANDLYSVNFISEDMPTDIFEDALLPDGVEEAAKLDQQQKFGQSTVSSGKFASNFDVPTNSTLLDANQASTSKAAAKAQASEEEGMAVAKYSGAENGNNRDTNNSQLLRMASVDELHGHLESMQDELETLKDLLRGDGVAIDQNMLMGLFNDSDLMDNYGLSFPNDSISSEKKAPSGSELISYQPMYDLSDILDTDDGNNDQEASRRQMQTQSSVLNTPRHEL

Usually Kd stands for the constant that tells how readily two partners part at equilibrium. Turning to “GGGAAUGGAUCCACAUCUACGAAUUCAAUCAAGUCCCCAGACUCAGCAACACUGGACAGCGAUAUGCAGAUAACCAAGACCAAUUCACUCCAGUUCACUGCAGACUUGACGAAGCUU [hHSF2-R5-2]”, the Kd with GST-hHSF2 (human) and with GST-hHSF1 (human) was under 20 nM each time. “GGGAAUGGAUCCACAUCUACGAAUUCCACUCCAUAGUAUCUAGAAGCCCUGCCGAAAACGAGAGCGCUUACGCUUAUAAAUGAUCAACCUACCUCGUUCACUGCAGACUUGACGAAGCUU [hHSF1-R5-1]”: the Kd with GST-hHSF2 (human) and with GST-hHSF1 (human) was under 20 nM in each case.

B1: hHSF2-R5-2 (structured_RNA)
RNA: GGGAAUGGAUCCACAUCUACGAAUUCAAUCAAGUCCCCAGACUCAGCAACACUGGACAGCGAUAUGCAGAUAACCAAGACCAAUUCACUCCAGUUCACUGCAGACUUGACGAAGCUU
The molecule B1 showed a Kd with dHSF of about 70 nM.

B2: hHSF1-R5-1 (structured_RNA)
RNA: GGGAAUGGAUCCACAUCUACGAAUUCCACUCCAUAGUAUCUAGAAGCCCUGCCGAAAACGAGAGCGCUUACGCUUAUAAAUGAUCAACCUACCUCGUUCACUGCAGACUUGACGAAGCUU
The molecule B2 yielded a Kd with dHSF of about 70 nM.
